According to patent US20220056125A1 (CEPHALON, published 2022):
Substitutions are numbered along the chain they refer to. Names may count otherwise. “And” between values parts separate entries of the source, which are not always exact repeats. Identical values can stand only once.

T1: human PAR-2 (human, UniProt P55085 26-397)
T1 sequence: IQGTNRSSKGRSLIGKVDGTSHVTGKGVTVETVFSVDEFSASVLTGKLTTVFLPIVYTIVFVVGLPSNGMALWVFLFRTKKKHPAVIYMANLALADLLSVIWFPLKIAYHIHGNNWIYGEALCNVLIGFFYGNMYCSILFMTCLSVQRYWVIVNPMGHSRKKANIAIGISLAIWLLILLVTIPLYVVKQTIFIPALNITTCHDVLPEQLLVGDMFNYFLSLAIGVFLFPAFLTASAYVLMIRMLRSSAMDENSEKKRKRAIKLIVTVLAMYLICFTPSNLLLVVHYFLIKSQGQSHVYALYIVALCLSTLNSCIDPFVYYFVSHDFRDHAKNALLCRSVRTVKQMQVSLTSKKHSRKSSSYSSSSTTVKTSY

T2: human PAR-1 (human, UniProt P25116 22-425)
T2 construct: also called huPAR-1
T2 sequence: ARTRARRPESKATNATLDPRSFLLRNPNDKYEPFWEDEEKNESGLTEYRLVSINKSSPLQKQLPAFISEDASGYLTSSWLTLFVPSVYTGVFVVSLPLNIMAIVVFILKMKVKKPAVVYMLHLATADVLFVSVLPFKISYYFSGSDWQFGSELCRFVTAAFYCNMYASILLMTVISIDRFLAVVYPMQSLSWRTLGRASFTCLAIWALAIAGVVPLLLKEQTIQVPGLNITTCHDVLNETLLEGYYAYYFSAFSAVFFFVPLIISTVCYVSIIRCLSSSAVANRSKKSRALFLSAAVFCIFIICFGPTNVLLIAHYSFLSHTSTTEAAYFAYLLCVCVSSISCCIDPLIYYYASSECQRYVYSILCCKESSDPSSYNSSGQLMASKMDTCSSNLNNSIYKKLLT

T3: rat PAR-2 on cells (rat, UniProt Q63645 26-397)
T3 construct: transiently transfected CHEM-1 cells
T3 sequence: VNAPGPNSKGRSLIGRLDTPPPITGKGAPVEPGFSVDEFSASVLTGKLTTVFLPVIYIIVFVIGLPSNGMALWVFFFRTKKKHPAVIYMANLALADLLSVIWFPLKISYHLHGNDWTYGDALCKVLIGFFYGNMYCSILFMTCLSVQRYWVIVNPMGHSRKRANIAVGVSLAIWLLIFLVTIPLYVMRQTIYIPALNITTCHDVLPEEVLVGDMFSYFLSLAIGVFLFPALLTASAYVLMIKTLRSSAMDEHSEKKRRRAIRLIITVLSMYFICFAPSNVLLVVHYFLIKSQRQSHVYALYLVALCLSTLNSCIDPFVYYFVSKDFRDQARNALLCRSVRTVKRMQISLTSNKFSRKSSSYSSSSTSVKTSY

T4: recombinant human PAR-2 (human, UniProt P55085 37-397, limits assumed)
T4 construct: detergent-solubilised preparation used in SPR; also called recombinant PAR-2
T4 sequence: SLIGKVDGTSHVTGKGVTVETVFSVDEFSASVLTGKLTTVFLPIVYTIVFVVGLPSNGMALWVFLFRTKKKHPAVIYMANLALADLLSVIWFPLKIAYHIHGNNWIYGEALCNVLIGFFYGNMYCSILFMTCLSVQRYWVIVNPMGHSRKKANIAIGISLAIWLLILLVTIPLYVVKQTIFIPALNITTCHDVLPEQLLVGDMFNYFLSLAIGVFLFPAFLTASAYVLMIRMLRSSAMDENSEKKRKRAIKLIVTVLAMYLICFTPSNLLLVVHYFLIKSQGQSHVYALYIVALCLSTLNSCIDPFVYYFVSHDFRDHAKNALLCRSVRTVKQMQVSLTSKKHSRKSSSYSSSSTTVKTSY

B1: Ab1 (antibody, human IgG4, V domains shown)
VH: EVQLVEFGGGLVQPKGSLKLSCAASGFTFNTNAMHWVRQAPGKGLEWVARIGSKSSYFATYYADSVKDRFTISRDDSRSMFYLQMNNLKTEDTAMYYCVREDYYGSSFDLWGQGTTLTVSS
VL: QIVLSQSPAILSASPGEKVTMTCRASSSLPYIHWYQQKPGSSPRPWIYATSNLASGVPARFSGRGSGTSYSLTISRMEAEDAATYYCQQWSSTPPTFGGGSKLEIK
notes: also called Anti-PAR-2 antibody # 1
B2: Ab39 (antibody, human IgG4, V domains shown)
VH: B1 VH with F7S, N32Y, F58Y, D75A, R78Q, F81L, M95I, S106C, L110Y
VL: QIVLSQSPVILSTSPGEKVTMTCRANSRVIYVHWYQQKPGSSPKPWIFATSNLASGVPSRFSGSGSGTSYSLTISRVETEDAATYYCQHCGNNPPTFGSGTKLEIK
notes: also called Anti-PAR-2 antibody # 39
B3: Ab77 (antibody, human IgG4, V domains shown)
VH: B1 VH with E6G, F7S, N32Y, F58Y, R78Q, F81L, F108Y, L110Y
VL: DIVMTQSHKFMSISVGDRVSITCKASQDVGTAVAWHQQKAGQSPKLLIYWASARHTGVPDRFTGSGSGTDFTLTISNVQSEDLTDFFCQQYSNYPFTFGSGTKLEIK
notes: also called Anti-PAR-2 antibody # 77
B4: Ab309 (antibody, human IgG4, V domains shown)
VH: QVQLKESGPGLVQPSQTLSLTCTVSGFSLNSYGVIWARQPPGKGLDWMGVIWGNGNTYYNSDLKSRLSISRDTSKSQVFLKMNNLQAEDTALYFCARWRGYKDYPFDYWGQGVMVTVSS
VL: DIQMTQSPSFLSASVGDRVTFNCKASQNIYKYLDWYQQKLGEAPKLLIYNTNSLHTGIPSRFSGSGFGTDFTLTISSLQPEDVATYFCLQHNSGWTFGGGTKLELR
B5: Ab20 (antibody, human IgG4, V domains shown)
VH: EVQLVESGGGLVQPKGSLKLSCAASGFTFNIYAMHWVRQAPGKGLEWVARIGSKSSNYATNYADSVKDRFTISRDDSQSMLCLQMNNLKTEDTAMYYCVREDYYGNSFDSWGQGTTLAVSS
VL: QIVLSQSPAILSASPGEKVTMTCRTSSSVIYIHWYQQKSGSSPKPWIYATSNLASGVPTRFSGSGSGTSYSLTISRVEAEDAATYYCHHWRSNPPTFGGGTKLEIK
notes: also called Anti-PAR-2 antibody # 20
B6: P24E1102 (antibody, human IgG4 S228P, kappa, V domains shown)
VH: QVQLVQSGAEVKKPGSSVKVSCKASGFSLSSYAISWVRQAPGQGLEWMGVIWGNQNVYYAQKFQGRVTITADESTSTAYMELSSLRSEDTAVYYCARWKGYKDYPFDYWGQGTLVTVSS
VL: EIVLTQSPATLSLSPGERATLSCRASQNVYKWLDWYQQKPGQAPRLLIYNANTRATGIPARFSGSGSGRDFTLTISSLEPEDFAVYYCQQHHSGWTFGGGTKVEIKR
notes: human IgG4 S228P K447del / kappa; also called Anti-PAR-2 (P24E1102); TEV-56192 P24E1102
B7: 309-4e (antibody, human IgG4 S228P, kappa, V domains shown)
VH: B6 VH with S30N, A33G, I34V, S35I, Q55G, V57T, A60N, K99R
VL: B6 VL with R24K, V29I, W32Y, A51T, T53S, R54L, A55H, Q89L, H92N

Columns and labels:
[1] = target: T1, human PAR-2; test: cell-based or functional assay
[2] = target: T1, human PAR-2; test: cell-based or functional assay; remark: listed apart in the source
[3] = target: T2, human PAR-1; test: flow cytometry, transfected Expi293F cells
Description: Paired heavy and light chains encoded by these sequence pairs were expressed as a full length human IgG4 isotype antibodies and assessed for PAR-2 binding and selectivity by flow cytometry. […] Cells were used for flow cytometric analysis 36-48 hours post-transfection. Use of Nt-PAR-2 as a target allowed antibodies which bound the N-terminal residues of PAR-2 (which comprise the protease-cleavage sites on PAR-2) to be distinguished from antibodies which bound other extracellular sites on PAR-2, such as the PAR-2-activating ligand-binding site(s). Expi293F cells, transiently expressing one of each of the different target proteins were labelled with different intensities of a single fluorphor Encoder dye (Intellicyt) for 10 mins at either 1 in 250 dilution for high intensity and/or 1 in 1500 dilution for moderate intensity, enabling simultaneous analysis of multiple cell populations. After washing the cells were then mixed in an equal ratio with the unlabeled cell type and analyzed for antibody binding.
(§1) The cells were plated in 96 well plates at 2×10⁵ cells/well. Following a wash step using Phosphate buffered saline (PBS), the primary antibody (anti-PAR-2 antibody) was added at a concentration of 10 μg/mL in 50 μL of FACS buffer (0.5% w/v BSA in PBS) to each well and incubated for 10-15 mins. Following a wash step, secondary antibody (anti-human Fc-FITC) was added to the wells at 1:200 dilution in 50 μL for 10-15 mins. Following a washing step, the cells were re-suspended in fluorescence-activated cell sorting (FACS) buffer. The flow cytometry analysis was performed on an Intellicyt iQue screener. Gates were drawn around the different intensities of encoder dye-positive cells and these populations were analyzed separately from each other and the unlabeled cells for binding by the primary antibody.

[4] = target: T1, human PAR-2; test: cell-based or functional assay; remark: listed apart in the source
[5] = target: T1, human PAR-2; test: cell-based or functional assay; remark: listed apart in the source
[6] = target: T1, human PAR-2; test: cell-based or functional assay; remark: listed apart in the source
[7] = target: T1, human PAR-2; test: cell-based or functional assay; remark: listed apart in the source
[8] = target: T1, human PAR-2; test: cell-based or functional assay; remark: listed apart in the source
[9] = target: T3, rat PAR-2 on cells; test: flow cytometry, transiently transfected CHEM-1 cells
Description: as §1
P24E1102 binding was also assessed by flow cytometry, as described in Example 1 supra, using PAR-2 transiently transfected into CHEM-1 cells. In addition to human, cynomolgus, mouse and rat, guinea pig, rabbit and dog PAR-2 were also tested. P24E1102 bound well to human and cynomolgus PAR-2 but minimally to all other species tested.

[10] = target: T4, recombinant human PAR-2; test: SPR, antibody captured on Protein A chip, recombinant PAR-2 injected
Description: (§2) Selected antibodies were tested for binding to various species of PAR-2 using surface plasmon resonance (SPR) assay for antibody binding to recombinant PAR-2, except that human PAR-2 was substituted with PAR-2 from cynomolgus monkeys, rat, or mice.
(§3) Antibodies were transfected and harvested as described in Example 3, supra. Antibodies in supernatant were diluted 1 in 50-250 in running buffer (50 mM HEPES, 250 mM NaCl, 0.1% w/v LMNG, 0.025% w/v CHAPS, 0.005% CHS, pH 7.4) and purified antibodies were diluted to 0.5 ug/mL in running buffer A Series S Protein A chip was docked into the instrument (Biacore S20) and the system was primed four times with running buffer prior to the run. Recombinant human PAR-2 was diluted to 0-5 μg/mL in running buffer. The surface was regenerated using 50 mM NaOH. The antibody was captured to between 20 to 110 Relative Units on the chip surface. The sample (recombinant PAR-2) was injected for 1 min at 30 μl/min, followed by dissociation phase of 180s. Sensorgrams were double referenced by buffer subtraction and by reference cell subtraction. Binding curves were then fit to a 1:1 binding model with kinetic constants derived from curve fits. Antibodies were ranked by dissociation rate (kd) when only one concentration of antigen was injected. Antibodies were ranked by their equilibrium dissociation constant (KD) when multiple concentrations of PAR-2 were injected. […]

[11] = target: T5, recombinant cynomolgus monkey PAR-2 (cynomolgus monkey); test: as above
T5 construct: also called cynomolgus PAR-2
Description: as §2, §3

T5 sequence (Q863Y8 other isoform, or with tags, fused parts or gaps): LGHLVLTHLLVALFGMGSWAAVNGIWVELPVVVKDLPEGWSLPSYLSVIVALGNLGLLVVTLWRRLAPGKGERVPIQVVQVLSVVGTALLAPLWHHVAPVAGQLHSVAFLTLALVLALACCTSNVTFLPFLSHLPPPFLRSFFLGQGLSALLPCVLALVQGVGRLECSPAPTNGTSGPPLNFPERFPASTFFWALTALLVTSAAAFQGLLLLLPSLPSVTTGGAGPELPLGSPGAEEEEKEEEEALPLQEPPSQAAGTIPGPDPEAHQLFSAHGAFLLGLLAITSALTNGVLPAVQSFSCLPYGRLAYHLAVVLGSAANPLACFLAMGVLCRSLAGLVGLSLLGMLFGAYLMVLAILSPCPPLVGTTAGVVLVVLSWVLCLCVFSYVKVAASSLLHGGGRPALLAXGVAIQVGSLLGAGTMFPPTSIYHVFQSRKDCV

Binder | IC50, PAR-2 β-arrestin cell assay [1] [nM] | IC50, PAR-2 calcium flux assay (trypsin EC80) [2] [nM] | binding result [3] | also measured
B1 | 8.4 | 50.5 | no binding (tested: 10 µg/mL) | –
B2 | 4.9 | 29 | no binding (tested: 10 µg/mL) | –
B3 | 16.5 | 169 | no binding (tested: 10 µg/mL) | –
B4 | 1.6 | 6.7 | no binding (tested: 10 µg/mL) | PAR-2 calcium flux cell assay IC50 [4]: 8.6 nM; PAR-2 β-arrestin cell assay IC50, 1 µM SLIGKV [4]: 4.4 nM
B5 | 10.7 | 73.2 | no binding (tested: 10 µg/mL) | –
B6 | – | – | – | IC50, PAR-2 activating ligand-induced calcium flux in A549 cells [5]: 13.2 nM; PAR-2 β-arrestin cell based assay IC50, 2 µM SLIGKV [6]: 1.4 nM; Calcium flux IC50 [7]: 17.4 nM; IL-6 release in A549 cells IC50 [7]: 5 nM; IL-8 release in A549 cells IC50 [7]: 4.62 nM; IC50 mean, calcium flux at SLIGKV EC80, Nomad line [8]: 2.07 nM; IC50 mean, β-arrestin at SLIGKV EC80, Nomad line [8]: 5.38 nM; binding result [9]: binds; Kd [10]: 0.433 to 0.946 nM; Kd [11]: 4.45 nM
B7 | – | – | – | PAR-2 calcium flux cell assay IC50 [4]: 7.6 nM; PAR-2 β-arrestin cell assay IC50, 1 µM SLIGKV [4]: 5.8 nM; PAR-2 β-arrestin cell based assay IC50, 2 µM SLIGKV [6]: 2.1 nM and 5.9 nM
